Series [1] concerns the target eIF4AIII;MLN51 SELOR;Y14;Magoh (human;human;human, UniProt P38919;O15234;Q9Y5S9;P61326 1-411;137-283;50-174;1-146, |||). Kind of series: SPR; ATP; 5 mM Mg2+; SPR (Biacore 2000): 40 mM Tris-HCl pH 7.8, 50 mM NaCl, 4 mM DTT, 5 mM MgCl2, 0.002% Tween 20, 30 ul/min, 10-160 nM protein; temperature not stated. Particulars: protein: recombinant;recombinant;recombinant;recombinant; tags: N-terminal His6;GST cleaved off (PreScission);none;N-terminal His6; copies: 1;1;1;1; label: 5' biotin; single strand.

Series [2] deals with eIF4AIII;MLN51 SELOR (human;human?, UniProt P38919;O15234 1-411;137-283, |). Kind of series: SPR; AMPPNP; 5 mM Mg2+; SPR (Biacore 2000): 40 mM Tris-HCl pH 7.8, 50 mM NaCl, 4 mM DTT, 5 mM MgCl2, 0.002% Tween 20, 30 ul/min, 10-160 nM protein; temperature not stated. Particulars: protein: recombinant;recombinant; tags: N-terminal His6;GST cleaved off (PreScission); copies: 1;1; label: 5' biotin; single strand.

The target of series [3] is MLN51 SELOR (UniProt O15234 137-283). Kind of series: SPR; no nucleotide; 5 mM Mg2+; SPR (Biacore 2000): 40 mM Tris-HCl pH 7.8, 50 mM NaCl, 4 mM DTT, 5 mM MgCl2, 0.002% Tween 20, 30 ul/min, 10-160 nM protein; temperature not stated. The settings on record: protein: recombinant; tags: GST cleaved off (PreScission); label: 5' biotin; single strand.
Series [4] deals with Y14;Magoh (human;human, UniProt Q9Y5S9;P61326 50-174;1-146, |). Kind of series: SPR; no nucleotide stated; 5 mM Mg2+; SPR (Biacore 2000): 40 mM Tris-HCl pH 7.8, 50 mM NaCl, 4 mM DTT, 5 mM MgCl2, 0.002% Tween 20, 30 ul/min, 10-160 nM protein; temperature not stated. Particulars: protein: recombinant;recombinant; tags: none;N-terminal His6; copies: 1;1; label: 5' biotin; single strand.
Y14;Magoh, sequence (P61326 whole entry, chain 2 of 2, other chains not shown): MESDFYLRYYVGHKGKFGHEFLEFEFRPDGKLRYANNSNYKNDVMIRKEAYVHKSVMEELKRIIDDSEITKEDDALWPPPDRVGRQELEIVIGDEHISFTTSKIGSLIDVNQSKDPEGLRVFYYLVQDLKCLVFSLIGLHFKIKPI

MLN51 SELOR, sequence (O15234 137-283): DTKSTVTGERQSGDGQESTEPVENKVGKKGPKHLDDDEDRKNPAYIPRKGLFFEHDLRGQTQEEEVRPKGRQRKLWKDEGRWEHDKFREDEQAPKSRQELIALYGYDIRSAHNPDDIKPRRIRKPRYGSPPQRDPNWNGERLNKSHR
eIF4AIII;MLN51 SELOR;Y14;Magoh, sequence (P38919 whole entry, chain 1 of 4, other chains not shown): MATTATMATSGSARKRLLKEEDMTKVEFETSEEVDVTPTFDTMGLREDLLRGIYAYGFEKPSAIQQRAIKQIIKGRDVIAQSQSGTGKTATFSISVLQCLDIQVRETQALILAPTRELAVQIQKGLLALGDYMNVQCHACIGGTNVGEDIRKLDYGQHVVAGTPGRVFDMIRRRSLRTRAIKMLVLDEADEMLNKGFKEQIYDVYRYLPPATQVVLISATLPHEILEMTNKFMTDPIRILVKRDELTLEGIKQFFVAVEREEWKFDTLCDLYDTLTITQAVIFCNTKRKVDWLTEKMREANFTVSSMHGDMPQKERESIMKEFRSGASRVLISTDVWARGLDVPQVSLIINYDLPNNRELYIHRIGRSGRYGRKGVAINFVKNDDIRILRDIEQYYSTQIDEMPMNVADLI
eIF4AIII;MLN51 SELOR;Y14;Magoh, sequence (O15234 137-283, chain 2 of 4, other chains not shown): as the sequence (O15234 137-283) above
eIF4AIII;MLN51 SELOR;Y14;Magoh, sequence (P61326 whole entry, chain 4 of 4, other chains not shown): as the sequence (P61326 whole entry, chain 2 of 2, other chains not shown) above
eIF4AIII;MLN51 SELOR, sequence (P38919 whole entry, chain 1 of 2): as the sequence (P38919 whole entry, chain 1 of 4, other chains not shown) above
eIF4AIII;MLN51 SELOR, sequence (O15234 137-283, chain 2 of 2): as the sequence (O15234 137-283) above

Regarding AUGUCAUUCGAGUACAGUCUGUUCAGCUAGUCUCC (ssRNA) [35-mer ssRNA], the dissociation constant Kd was about 10 nM in series [1], about 10 nM in series [2], about 1000 nM in series [3] and about 2000 nM in series [4].

For the origin of these results see paper PMC1810427, “MLN51 Stimulates the RNA-Helicase Activity of eIF4AIII”.
